{
  "source": "paper PMC2755582",
  "about": "(Journal of molecular biology, 2009)",
  "molecules": {"B1": {"name": "uroplakin II (natural protein, mouse, UniProt P38575 85-184, looked up)", "chain": "ELVSVVDSGSGYTVTRLSAYQVTNLTPGTKYYISYRVQKGTSTESSPETPMSTLPRKNMESIGLGMARTGGMVVITVLLSVAMFLLVVGLIVALHWDARK"}, "B2": {"name": "uroplakin Ib (natural protein, mouse, UniProt Q9Z2C6 1-260, looked up)", "chain": "MAKDDSTVRCFQGLLIFGHVIVGMCGIALTAECIFFVSDQHSLYPLLEATNNDDIFGAAWIGMFVGICLFCLSVLAIVGIMKSNRKILLAYFIMMFIVYGFEVASCITAATQRDFFTTNLFLKQMLMRYQNNSPPTNDDEWKNNGVTKTWDRLMLQDHCCGVNGPSDWQKYTSAFRVENNDADYPWPRQCCVMDKLKEPLNLDACKLGVPGYYHSQGCYELISGPMDRHAWGVAWFGFAILCWTFWVLLGTMFYWSRIEY"}},
  "key": {"[1]": {"target": "Uroplakin Ia (Mus musculus) (UniProt Q9D132)", "details": "cited from earlier work"}, "uroplakin Ia": {"target": "T1, uroplakin Ia (mouse, UniProt Q9D132 1-257, high mannose glycan at its single glycosylation site)", "T1 sequence (looked up)": "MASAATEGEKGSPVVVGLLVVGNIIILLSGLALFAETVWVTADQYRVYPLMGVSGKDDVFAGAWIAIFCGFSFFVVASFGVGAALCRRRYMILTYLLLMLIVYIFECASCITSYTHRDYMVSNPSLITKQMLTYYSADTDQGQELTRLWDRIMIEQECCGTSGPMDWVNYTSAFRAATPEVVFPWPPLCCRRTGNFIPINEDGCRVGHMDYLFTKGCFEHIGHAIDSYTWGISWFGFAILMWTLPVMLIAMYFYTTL", "assay": "cryo-EM structure"}, "uroplakin IIIa": {"target": "T2, uroplakin IIIa (mouse, UniProt Q9JKX8 19-287)", "T2 sequence (looked up)": "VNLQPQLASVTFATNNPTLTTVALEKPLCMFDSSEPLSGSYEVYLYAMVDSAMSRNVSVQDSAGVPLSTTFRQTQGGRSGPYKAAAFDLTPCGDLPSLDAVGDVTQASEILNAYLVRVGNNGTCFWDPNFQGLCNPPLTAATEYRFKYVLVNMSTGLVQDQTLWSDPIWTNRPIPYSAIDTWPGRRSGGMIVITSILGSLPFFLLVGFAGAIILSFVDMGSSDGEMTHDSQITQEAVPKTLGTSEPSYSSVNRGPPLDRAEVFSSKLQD", "assay": "cryo-EM structure"}},
  "data": [
    {"molecule": "FimH (from UniProt P08191)", "values": [
      {"measurement": "Kd", "setting": "[1]", "value": 100, "unit": "nM"}
    ]},
    {"molecule": "B1", "values": [
      {"measurement": "binding result", "setting": "uroplakin Ia", "value": "binds"}
    ]},
    {"molecule": "B2", "values": [
      {"measurement": "binding result", "setting": "uroplakin IIIa", "value": "binds"}
    ]}
  ]
}
